From the supplement of paper PMC11246515
± gives the standard deviation of the averaged measurements.

Test: total protein half-life in vivo (active degradation + dilution); higher = more stable protein
[1] = E. coli NCM3722 delta-clpP delta-lon delta-hslV, growth: N-lim chemostat, doubling time 6 h
[2] = E. coli NCM3722 delta-clpP, growth: N-lim chemostat, doubling time 6 h
[3] = E. coli NCM3722 delta-hslV, growth: N-lim chemostat, doubling time 6 h
[4] = E. coli NCM3722 delta-lon, growth: N-lim chemostat, doubling time 6 h
[5] = E. coli NCM3722 delta-smpB, growth: N-lim chemostat, doubling time 6 h
[6] = wild type E. coli NCM3722, growth: C-lim chemostat, doubling time 3 h
[7] = wild type E. coli NCM3722, growth: C-lim chemostat, doubling time 6 h
[8] = wild type E. coli NCM3722, growth: N-lim chemostat, doubling time 6 h
[9] = wild type E. coli NCM3722, growth: N-lim chemostat, doubling time 12 h
[10] = wild type E. coli NCM3722, growth: P-lim chemostat, doubling time 6 h
[11] = wild type E. coli NCM3722, growth: P-lim chemostat, doubling time 12 h
[12] = wild type E. coli NCM3722, growth: C-lim chemostat, doubling time 12 h

MKLFAQGTSLDLSHPHVMGILNVTPDSFSDGGTHNSLIDAVKHANLMINAGATIIDVGGESTRPGAAEVSVEEELQRVIPVVEAIAQRFEVWISVDTSKPEVIRESAKVGAHIINDIRSLSEPGALEAAAETGLPVCLMHMQGNPKTMQEAPKYDDVFAEVNRYFIEQIARCEQAGIAKEKLLLDPGFGFGKNLSHNYSLLARLAEFHHFNLPLLVGMSRKSMIGQLLNVGPSERLSGSLACAVIAAMQGAHIIRVHDVKETVEAMRVVEATLSAKENKRYE [P0AC13]
total protein half-life in vivo [1]: 4.15 ± 0.55 h
total protein half-life in vivo [2]: 3.78 ± 0.098 h
total protein half-life in vivo [3]: 4.96 ± 1.8 h
total protein half-life in vivo [4]: 4.16 ± 0.19 h
total protein half-life in vivo [5]: 3.72 ± 0.14 h
total protein half-life in vivo [6]: 2.881 ± 0.016 h
total protein half-life in vivo [7]: 4.48 ± 0.86 h
total protein half-life in vivo [8]: 3.94 ± 0.15 h
total protein half-life in vivo [9]: 6.23 ± 0.25 h
total protein half-life in vivo [10]: 5.63 ± 0.14 h
total protein half-life in vivo [11]: 11.3 ± 0.29 h

MKLFYKPGACSLASHITLRESGKDFTLVSVDLMKKRLENGDDYFAVNPKGQVPALLLDDGTLLTEGVAIMQYLADSVPDRQLLAPVNSISRYKTIEWLNYIATELHKGFTPLFRPDTPEEYKPTVRAQLEKKLQYVNEALKDEHWICGQRFTIADAYLFTVLRWAYAVKLNLEGLEHIAAFMQRMAERPEVQDALSAEGLK [P0A9D2]
total protein half-life in vivo [1]: 4.9 ± 0.3 h
total protein half-life in vivo [2]: 5.74 ± 1.9 h
total protein half-life in vivo [3]: 4.81 ± 0.22 h
total protein half-life in vivo [4]: 6.34 ± 1.4 h
total protein half-life in vivo [5]: 4.64 ± 0.58 h
total protein half-life in vivo [6]: 2.84 ± 0.23 h
total protein half-life in vivo [7]: 5.69 ± 0.32 h
total protein half-life in vivo [12]: 11.6 ± 2.5 h
total protein half-life in vivo [8]: 4.81 ± 0.2 h
total protein half-life in vivo [9]: 9.9 ± 0.87 h
total protein half-life in vivo [10]: 5.44 ± 0.29 h
total protein half-life in vivo [11]: 10.6 ± 0.74 h

MKLGFIGLGIMGTPMAINLARAGHQLHVTTIGPVADELLSLGAVSVETARQVTEASDIIFIMVPDTPQVEEVLFGENGCTKASLKGKTIVDMSSISPIETKRFARQVNELGGDYLDAPVSGGEIGAREGTLSIMVGGDEAVFERVKPLFELLGKNITLVGGNGDGQTCKVANQIIVALNIEAVSEALLFASKAGADPVRVRQALMGGFASSRILEVHGERMIKRTFNPGFKIALHQKDLNLALQSAKALALNLPNTATCQELFNTCAANGGSQLDHSALVQALELMANHKLA
total protein half-life in vivo [1]: 4.94 ± 0.21 h
total protein half-life in vivo [2]: 3.37 ± 1.2 h
total protein half-life in vivo [4]: 3.23 h
total protein half-life in vivo [10]: 2.4 ± 2 h
total protein half-life in vivo [11]: 2.16 h

MKLHHRMLRHFIAASVIVLTSSFLIFELVASDRAMSAYLRYIVQKADSSFLYDKYQNQSIAAHVMRALAAEQSEVSPEQRRAICEAFESANNTHGLNLTAHKYPGLRGTLQTASTDCDTIVEAAALLPAFDQAVEGNRHQDDYGSGLGMAEEKFHYYLDLNDRYVYFYEPVNVEYFAMNNWSFLQSGSIGIDRKDIEKVFTGRTVLSSIYQDQRTKQNVMSLLTPVYVAGQLKGIVLLDINKNNLRNIFYTHDRPLLWRFLNVTLTDTDSGRDIIINQSEDNLFQYVSYVHDLPGGIRVSLSIDILYFITSSWKSVLFWILTALILLNMVRMHFRLYQNVSRENISDAMTGLYNRKILTPELEQRLQKLVQSGSSVMFIAIDMDKLKQINDTLGHQEGDLAITLLAQAIKQSIRKSDYAIRLGGDEFCIILVDSTPQIAAQLPERIEKRLQHIAPQKEIGFSSGIYAMKENDTLHDAYKASDERLYVNKQNKNSRS
total protein half-life in vivo [1]: 6.76 ± 0.25 h
total protein half-life in vivo [2]: 6.49 ± 0.48 h
total protein half-life in vivo [3]: 6.32 ± 0.99 h
total protein half-life in vivo [4]: 6.49 ± 0.3 h
total protein half-life in vivo [5]: 5.84 ± 0.39 h
total protein half-life in vivo [6]: 3.35 ± 0.26 h
total protein half-life in vivo [8]: 6.57 ± 0.21 h
total protein half-life in vivo [9]: 14.1 ± 0.84 h
total protein half-life in vivo [10]: 6.25 ± 0.64 h
total protein half-life in vivo [11]: 12.9 ± 0.26 h

MKLIPRSSDISPGIDGICPGPFPPNGFTVLTDAAYGNGDCFGLYWPIGQEHKLPIVCETYHDEWRIVPAFSSIKKFEEWLEVNDDDPHENGISIEDQDFAANLFRVARKCLSTGRLDDALPLLQRATEQLPEVSEYWLALAIQYRRCKKTEAAAQAALNAYLGNWAFGVPDNKVIHLLSQAADVPNFQDDPVIQCIKEQGLDLSFGGTKENNNYPLMQMCVDTYFAQRKPLQALTLLHNYAWIMSSETTAFQERYDFNIDEWRAKFRQLCLEYFGDSRTQFT
total protein half-life in vivo [1]: 3.49 h
total protein half-life in vivo [3]: 3.01 h
total protein half-life in vivo [5]: 3.03 ± 0.077 h
total protein half-life in vivo [6]: 2.62 ± 0.22 h
total protein half-life in vivo [7]: 4.63 ± 0.52 h
total protein half-life in vivo [12]: 8.76 h
total protein half-life in vivo [8]: 3.47 ± 0.64 h
total protein half-life in vivo [9]: 5.75 ± 0.36 h
total protein half-life in vivo [11]: 9.99 h

MKLIRGIHNLSQAPQEGCVLTIGNFDGVHRGHRALLQGLQEEGRKRNLPVMVMLFEPQPLELFATDKAPARLTRLREKLRYLAECGVDYVLCVRFDRRFAALTAQNFISDLLVKHLRVKFLAVGDDFRFGAGREGDFLLLQKAGMEYGFDITSTQTFCEGGVRISSTAVRQALADDNLALAESLLGHPFAISGRVVHGDELGRTIGFPTANVPLRRQVSPVKGVYAVEVLGLGEKPLPGVANIGTRPTVAGIRQQLEVHLLDVAMDLYGRHIQVVLRKKIRNEQRFASLDELKAQIARDELTAREFFGLTKPA [P0AG40]
total protein half-life in vivo [1]: 4.18 ± 0.72 h
total protein half-life in vivo [2]: 5.21 ± 0.77 h
total protein half-life in vivo [3]: 4.54 ± 0.2 h
total protein half-life in vivo [4]: 5.2 ± 0.77 h
total protein half-life in vivo [5]: 4.43 ± 0.14 h
total protein half-life in vivo [6]: 3.15 ± 0.15 h
total protein half-life in vivo [7]: 5.64 ± 0.3 h
total protein half-life in vivo [12]: 10.5 ± 0.48 h
total protein half-life in vivo [8]: 4.62 ± 0.35 h
total protein half-life in vivo [9]: 7.426 ± 0.064 h
total protein half-life in vivo [10]: 5.441 ± 0.05 h
total protein half-life in vivo [11]: 11.83 ± 0.032 h
